Laboratory results published in publication PMC10397247.

Key:
P11A-bP = biological target: T1, P11A-bP; assay: two-hybrid library CCNG1;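 further: natural log of median RNA to DNA barcode read ratio; higher means stronger binding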
T1 chain: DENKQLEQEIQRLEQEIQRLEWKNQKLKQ

P2A-bP = biological target: T2, P2A-bP; assay: two-hybrid library CCNG1;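 further: natural log of median RNA to DNA barcode read ratio; higher means stronger binding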
T2 chain: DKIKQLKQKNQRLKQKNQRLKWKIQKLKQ

P4A-bP = biological target: T3, P4A-bP; assay: two-hybrid library CCNG1;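 further: natural log of median RNA to DNA barcode read ratio; higher means stronger binding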
T3 chain: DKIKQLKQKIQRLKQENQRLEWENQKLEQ

P8A-bP = biological target: T4, P8A-bP; assay: two-hybrid library CCNG1;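 further: natural log of median RNA to DNA barcode read ratio; higher means stronger binding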
T4 chain: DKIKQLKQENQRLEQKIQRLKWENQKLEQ

P12A-bP = biological target: T5, P12A-bP; assay: two-hybrid library CCNG1
T5 chain: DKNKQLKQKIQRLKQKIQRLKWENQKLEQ

P5A-bP = biological target: T6, P5A-bP; assay: two-hybrid library CCNG1
T6 chain: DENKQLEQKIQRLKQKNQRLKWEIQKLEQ

P6A-bP = biological target: T7, P6A-bP; assay: two-hybrid library CCNG1
T7 chain: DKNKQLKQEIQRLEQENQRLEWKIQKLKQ

P3A-bP = biological target: T8, P3A-bP; assay: two-hybrid library CCNG1
T8 chain: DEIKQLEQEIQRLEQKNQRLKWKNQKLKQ

P7A-bP = biological target: T9, P7A-bP; assay: two-hybrid library CCNG1
T9 chain: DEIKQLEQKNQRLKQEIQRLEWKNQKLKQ

P1A-bP = biological target: T10, P1A-bP; assay: two-hybrid library CCNG1
T10 chain: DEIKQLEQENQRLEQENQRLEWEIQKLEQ

4H1821-AA = biological target: T11, 4H1821-AA; assay: two-hybrid library CCmax; conditions: mean of both orientations
T11 chain: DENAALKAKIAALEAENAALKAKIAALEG

4H249-AA = biological target: T12, 4H249-AA; assay: two-hybrid library CCmax; conditions: mean of both orientations
T12 chain: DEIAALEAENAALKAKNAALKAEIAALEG

4H3001-AA = biological target: T13, 4H3001-AA; assay: two-hybrid library CCmax; conditions: mean of both orientations
T13 chain: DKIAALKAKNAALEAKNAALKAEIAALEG

4H2253-AA = biological target: T14, 4H2253-AA; assay: two-hybrid library CCmax; conditions: mean of both orientations
T14 chain: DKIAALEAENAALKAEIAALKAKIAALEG

4H1930-AA = biological target: T15, 4H1930-AA; assay: two-hybrid library CCmax; conditions: mean of both orientations
T15 chain: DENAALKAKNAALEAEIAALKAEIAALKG

4H1828-AA = biological target: T16, 4H1828-AA; assay: two-hybrid library CCmax; conditions: mean of both orientations
T16 chain: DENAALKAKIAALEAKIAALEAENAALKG

4H2343-AA = biological target: T17, 4H2343-AA; assay: two-hybrid library CCmax; conditions: mean of both orientations
T17 chain: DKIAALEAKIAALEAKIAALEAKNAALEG

4H2592-AA = biological target: T18, 4H2592-AA; assay: two-hybrid library CCmax; conditions: mean of both orientations
T18 chain: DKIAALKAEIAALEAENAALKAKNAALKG

4H56-AA = biological target: T19, 4H56-AA; assay: two-hybrid library CCmax; conditions: mean of both orientations
T19 chain: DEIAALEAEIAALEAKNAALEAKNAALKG

4H3073-AA = biological target: T20, 4H3073-AA; assay: two-hybrid library CCmax; conditions: mean of both orientations
T20 chain: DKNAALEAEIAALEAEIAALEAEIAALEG

4H3438-AA = biological target: T21, 4H3438-AA; assay: two-hybrid library CCmax; conditions: mean of both orientations
T21 chain: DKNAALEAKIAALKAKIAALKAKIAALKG

4H_APH = biological target: T22, 4H_APH; assay: two-hybrid library CCmax
T22 chain: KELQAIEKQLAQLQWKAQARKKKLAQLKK

4H_GCN4 = assay: two-hybrid library CCmax
4H2165-AA = biological target: T23, 4H2165-AA; assay: two-hybrid library CCmax; conditions: mean of both orientations
T23 chain: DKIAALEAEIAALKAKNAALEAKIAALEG

4H2330-AA = biological target: T24, 4H2330-AA; assay: two-hybrid library CCmax; conditions: mean of both orientations
T24 chain: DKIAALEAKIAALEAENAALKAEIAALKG

4H3015-AA = biological target: T25, 4H3015-AA; assay: two-hybrid library CCmax; conditions: mean of both orientations
T25 chain: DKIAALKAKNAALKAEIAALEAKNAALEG

4H2732-AA = biological target: T26, 4H2732-AA; assay: two-hybrid library CCmax; conditions: mean of both orientations
T26 chain: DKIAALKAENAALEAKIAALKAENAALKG

4H347-AA = biological target: T27, 4H347-AA; assay: two-hybrid library CCmax; conditions: mean of both orientations
T27 chain: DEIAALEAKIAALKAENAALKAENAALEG

4H1765-AA = biological target: T28, 4H1765-AA; assay: two-hybrid library CCmax
T28 chain: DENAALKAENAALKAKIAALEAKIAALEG

4H2931-AA = biological target: T29, 4H2931-AA; assay: two-hybrid library CCmax; conditions: mean of both orientations
T29 chain: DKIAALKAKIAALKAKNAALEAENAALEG

GCN2_T = assay: two-hybrid library CCmax; conditions: mean of both orientations
4H2466-AA = biological target: T30, 4H2466-AA; assay: two-hybrid library CCmax; conditions: mean of both orientations
T30 chain: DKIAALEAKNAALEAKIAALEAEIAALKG

4H406-AA = biological target: T31, 4H406-AA; assay: two-hybrid library CCmax; conditions: mean of both orientations
T31 chain: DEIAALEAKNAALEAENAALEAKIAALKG

4H452-AA = biological target: T32, 4H452-AA; assay: two-hybrid library CCmax; conditions: mean of both orientations
T32 chain: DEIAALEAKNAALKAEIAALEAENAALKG

4H_BCR = biological target: T33, 4H_BCR; assay: two-hybrid library CCmax; conditions: mean of both orientations
T33 chain: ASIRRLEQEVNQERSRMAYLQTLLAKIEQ

4H2124-AA = biological target: T34, 4H2124-AA; assay: two-hybrid library CCmax
T34 chain: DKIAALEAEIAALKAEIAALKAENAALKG

4H2774-AA = biological target: T35, 4H2774-AA; assay: two-hybrid library CCmax; conditions: mean of both orientations
T35 chain: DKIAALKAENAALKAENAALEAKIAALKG

Core_NNNN-es_KEEE = biological target: T36, Core_NNNN-es_KEEE; assay: two-hybrid library CCmax
T36 chain: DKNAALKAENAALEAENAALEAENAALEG

P2-AA-1HAA-D = biological target: T37, P2-AA-1HAA-D; assay: two-hybrid library CCmax; conditions: mean of both orientations
T37 chain: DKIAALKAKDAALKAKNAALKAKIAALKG

P2-AA-1HAA-T = biological target: T38, P2-AA-1HAA-T; assay: two-hybrid library CCmax; conditions: mean of both orientations
T38 chain: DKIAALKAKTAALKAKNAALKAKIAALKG

P2-AA-1HAA-Y = biological target: T39, P2-AA-1HAA-Y; assay: two-hybrid library CCmax; conditions: mean of both orientations
T39 chain: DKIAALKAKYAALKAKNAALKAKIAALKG

P2-AA-1HAA-E = biological target: T40, P2-AA-1HAA-E; assay: two-hybrid library CCmax; conditions: mean of both orientations
T40 chain: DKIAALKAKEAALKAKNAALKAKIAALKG

P2-AA-1HAA-V = biological target: T41, P2-AA-1HAA-V; assay: two-hybrid library CCmax; conditions: mean of both orientations
T41 chain: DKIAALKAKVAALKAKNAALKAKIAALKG

P2-AA = biological target: T42, P2-AA; assay: two-hybrid library CCmax; conditions: mean of both orientations
T42 chain: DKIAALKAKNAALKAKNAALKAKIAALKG

P2-AA-1HAA-I = biological target: T43, P2-AA-1HAA-I; assay: two-hybrid library CCmax; conditions: mean of both orientations
T43 chain: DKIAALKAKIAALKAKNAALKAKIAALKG

P2-AA-1HAA-K = biological target: T44, P2-AA-1HAA-K; assay: two-hybrid library CCmax; conditions: mean of both orientations
T44 chain: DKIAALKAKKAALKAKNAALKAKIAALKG

P2-AA-1HAA-S = biological target: T45, P2-AA-1HAA-S; assay: two-hybrid library CCmax; conditions: mean of both orientations
T45 chain: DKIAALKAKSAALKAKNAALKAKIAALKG

P2-AA-1HAA-R = biological target: T46, P2-AA-1HAA-R; assay: two-hybrid library CCmax; conditions: mean of both orientations
T46 chain: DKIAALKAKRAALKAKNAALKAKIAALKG

4H_GCN4, sequence (chain, as listed by the source): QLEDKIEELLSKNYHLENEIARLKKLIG

B1: P10A-bP (peptide)
chain: DKNKQLKQENQRLEQKIQRLKWKIQKLKQ
P11A-bP
  interaction score: 1.25
P2A-bP
  interaction score: -1.7
P4A-bP
  interaction score: -0.87
P8A-bP
  interaction score: -1.35
P12A-bP
  interaction score: -1.01
P5A-bP
  interaction score: -1.01
P6A-bP
  interaction score: -0.83
P3A-bP
  interaction score: -0.806
P7A-bP
  interaction score: -1.19
P1A-bP
  interaction score: 0.96

B2: 4H1765-AA (peptide)
chain: DENAALKAENAALKAKIAALEAKIAALEG
4H1821-AA
  interaction score: -1.42
4H249-AA
  interaction score: -1.63
4H3001-AA
  interaction score: -2.1
4H2253-AA
  interaction score: -1.14
4H1930-AA
  interaction score: -1.21
4H1828-AA
  interaction score: -0.973
4H2343-AA
  interaction score: -1.45
4H2592-AA
  interaction score: -1.67
4H56-AA
  interaction score: -1.76
4H3073-AA
  interaction score: -1.02
4H3438-AA
  interaction score: -0.901
4H_APH
  interaction score: -2.38
4H_GCN4
  interaction score: -1.69
4H2165-AA
  interaction score: -1.25
4H2330-AA
  interaction score: -1.37
4H3015-AA
  interaction score: -1.7
4H2732-AA
  interaction score: -1.76
4H347-AA
  interaction score: -1.81
4H1765-AA
  interaction score: 2.4
4H2931-AA
  interaction score: -1.83
GCN2_T
  interaction score: -1.28
4H2466-AA
  interaction score: -1.7
4H406-AA
  interaction score: -1.54
4H452-AA
  interaction score: -1.48
4H_BCR
  interaction score: -1.93
4H2124-AA
  interaction score: -1.72
4H2774-AA
  interaction score: -1.4
Core_NNNN-es_KEEE
  interaction score: -0.679

B3: P1-AA-1HAA-R (peptide)
chain: DEIAALEAERAALEAENAALEAEIAALEG
P2-AA-1HAA-D
  interaction score: 0.454
P2-AA-1HAA-T
  interaction score: 1.95
P2-AA-1HAA-Y
  interaction score: 1.63
P2-AA-1HAA-E
  interaction score: 0.63
P2-AA-1HAA-V
  interaction score: 2.29
P2-AA
  interaction score: 1.76
P2-AA-1HAA-I
  interaction score: 1.99
P2-AA-1HAA-K
  interaction score: 0.734
P2-AA-1HAA-S
  interaction score: 1.28
P2-AA-1HAA-R
  interaction score: 1.34
